Publication PMC3916536

Columns and labels:
[1] = molecular target: HLA-A2/D76N β2m/NY-ESO-1(Y1V9) complex; assay: native MS; nano-ESI-MS, 10 μM protein, 100 mM ammonium acetate, pH 7, declustering potential 50 V, complexes with peptide I
[2] = molecular target: HLA-A2/WT β2m/NY-ESO-1(Y1V9) complex; assay: as above

| stoichiometry N [1] | stoichiometry N [2] | Substance |
| --- | --- | --- |
| 2 | – | HLA-A2/D76N β2m/NY-ESO-1(Y1V9) complex (from UniProt P61769 21-119) (peptide-MHC) |
| – | 2 | HLA-A2/WT β2m/NY-ESO-1(Y1V9) complex (from UniProt P61769 21-119) (peptide-MHC) |
